The nanobody polyreactivity screen of Harvey et al. (2022)

Assay: yeast display, Sf9 membrane polyspecificity reagent, FACS + sequencing; frameworks hold sequencing errors
Outline: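 Synthetic nanobody libraries on Saccharomyces cerevisiae BJ5465 were galactose-induced for 36–48 hours, stained 1 hour at 4 °C with 10% biotinylated, detergent-solubilized Sf9 membrane reagent and enriched on streptavidin microbeads. FACS then separated cells into low and high (top ~1%) gates by anti-HA (expression) and streptavidin (reagent binding) fluorescence. Genes were colony-PCR amplified, MiSeq 2 × 250 sequenced and CDR-length filtered. A clone's polyreactivity label is that of its gate of origin.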
In the case of “QVQQQESGGGLVQAGGSLRLSSAASVTILYTLGLGLYRQAPGKTLEFVASITWGTTTNYAESVKGRFTISRDNAKNSVYLQMNSLKPEDTADYYCAARKFVYWYGMEYWGQGTQVTVSS”, the “polyreactivity (PSR sort gate)” value is reported as “low polyreactivity”. For “QVQQQESGGGLVQAGGSLRRSCAASGSIFSHWAMGWYRQTPGKERELVASITAGGNNNYADSVKGRFTISRDNAKNTVYLPMNSLKPEDTAVYYCNRRYPGPDSFEHYYYYRYDYWGQGTQVTVSS”, the “polyreactivity (PSR sort gate)” value was “low polyreactivity”. For “QVQQQQSGGGLVQAGGSLSLSCAASGTIFQLTVMGRYRQAPGKERELVASIDYGGNTNYADSVKGRFTISRDNAKNTVYLQMNSLKPEDTEVYYCAASSDTWTTHPFWGQGTQVTVSS”, the “polyreactivity (PSR sort gate)” value was “low polyreactivity”. With “QVQQQVSGGGLVQAGGSLRLSCAASGYIFQNVPMGWNRQAPGKERDLVAGIDNGTSTNYADSVNGRFTISRDNAKNTVYLQMNSLKPEVTAVYYCAAAGQADDTLGYWGQGTLVTVSS” the “polyreactivity (PSR sort gate)” value was “low polyreactivity”. With “QVQREESGGGLVQAGGRLRLTCAASGSIFGYYVMGWYRQAPGKERELVAAITRSGSTYYADSVKGRFTISRDNAKNTVYLQMNSLKPEDTAVYYCYADVYWPGTPYTHDYWGQGTQVTVSS” the “polyreactivity (PSR sort gate)” value was “low polyreactivity”. For “QVQRVDSGGGLVQAGGSLRLICAASGFTFKYYAMGWYRQAPGKERELVAAITRGGDTYYADSVMGRFTISRDNAKNTVYLQMNRLKPEETAVYYCNTASDKRAFDYWGQGTQLTVSS”, the “polyreactivity (PSR sort gate)” value was “low polyreactivity”. In the case of “QVQRVDSGGGLVQAGGSLRLSCAASGITLLRYTMGWYRQAPGKERELLASITKRGGSTYYADSVKGRFTISRDNAKNTVYLQMNSLKPEDTAVYYCNADRHNSYYRKWDQLDMDYWGQGTQVTVSS”, the “polyreactivity (PSR sort gate)” value is reported as “high polyreactivity”. In the case of “QVQRVESAGGLVQARGSLRLSSAASGRIFKAYAMGCYRQAPGKERELVAAISRSGGNTYYADSVKGRFTISRDNAKYTVYLQLNSLKPEETAVYYCAARRFWGSDYDYWGQGTQVTVSS”, the “polyreactivity (PSR sort gate)” value is reported as “high polyreactivity”. With “QVQRVESAGRLVQAGGSLRLSCAPSGRTFPGNDMGWYRQAPGKESEFVAAISSDDSTYYADSVKGRFTISRDNAKNTVYLQMNSLKPEDTGVYYSNAEYFEGYIGVPGSYWPYEYWGQGNQVTVSS” the “polyreactivity (PSR sort gate)” value was “low polyreactivity”. For “QVQRVESEGGLVQAGGSLRLSCAASGRTFENYAMGWYRQAPGKERELVATINGRSGNTYYADSVKGRFTISRDNAKNTVYLQLNSLKPDDTAVYYCNAYYEGDYTVGYDYWGQGTQVTVSS”, the “polyreactivity (PSR sort gate)” value was “high polyreactivity”. With “QVQRVESGGCLVQAGGSLRLSCAASGRTFSYYTMGWYRQAPGKEREFVATINTSGGSTYYADSVKGRFTISRDNAKNTVYLQMNSLKPEDTAVYYCAADVYSFLSISYQWYRMDYWGQGTQVTVSS” the “polyreactivity (PSR sort gate)” value was “low polyreactivity”. With “QVQRVESGGGLDQARGSLRLSCAASGITLDRYDMGWYRQAPGKERELVAAISRSGVRTYYADSVKGRFTISRDNAKNTVYLQRNSLKPEDPAVYYCNKGYARRYASGYDYWGQGTQVTVSS” the “polyreactivity (PSR sort gate)” value was “high polyreactivity”. In the case of “QVQRVESGGGLFQAGGRLRLSCAASGLIFPWYARGWYRQAPGKERELVAAISVRGGSTYYADSVKGRFTISRDNAKNTVYLQMNSLKPEDTAVYYCAASKRRASYRYYYWGQGTQVTVSS”, the “polyreactivity (PSR sort gate)” value is reported as “high polyreactivity”. With “QVQRVESGGGLFQAGGRLRLSCAATGSIFTPNAMGWYRQAPGKERELVAAISSSSDRTYYADSVKGRFTISRDKAKNTVYLQMNSLKPEDTAVYYCAAYAQKRYYWGQGTQVTVSS” the “polyreactivity (PSR sort gate)” value was “high polyreactivity”. For “QVQRVESGGGLGLAGGSLRLSCAASGITFVLYALGGYRQAPGKERALVASITWDATDTYYADSVKGRFTISRDNAKNTEYIPMNSLKPDDTAVSYCNAAYYNYWWLEYDYWGQGTQVTVSS”, the “polyreactivity (PSR sort gate)” value was “high polyreactivity”. With “QVQRVESGGGLVQAGCSLRLSCAASGLIFTRYDMGWNRPAPGKERELVAAISGDGGSTYYAESVKGRFTISRDNAKNTVYLQMNSLKPEDTAVYYCAADSARTPWDDYWGQGTQVTVSS” the “polyreactivity (PSR sort gate)” value was “high polyreactivity”. For “QVQRVESGGGLVQAGGRLRLSCAASGFIFSYNAMGWYRQAPGKERELVAAISWSGVSTYYADSVMGRFTISRDNAKNTVYLQMNSLKPEDTAVYYCSAVRLRYATPVQFNPYIFGYWGQGTQVTVSS”, the “polyreactivity (PSR sort gate)” value was “high polyreactivity”. With “QVQRVESGGGLVQAGGSHRLSCAASGRIFSLNAMGWYRQAPGKERELVAAITTTGGTTYYADSVKGRFTISRDKAKNTVYLQMNSLKPEDTAVYYCAADYAPYNYLAYYFSGWLEYWGQGTQVTVSS” the “polyreactivity (PSR sort gate)” value was “low polyreactivity”. In the case of “QVQRVESGGGLVQAGGSLRLRCAASGFTLGHYAMGWYRQAPGTERELVAVITSGSSTNYADSVKGRFTISRDNAKNTVYLQMNSLKPEDTAVIYCAAEHPYFIWLYYYWGQGTQVTVSS”, the “polyreactivity (PSR sort gate)” value is reported as “low polyreactivity”. In the case of “QVQRVESGGGLVQAGGSLRLSCAACGSILPQYTMVWYRQAPGKERELVAAISKRGDRTYYADSVKGRFTISRDNAKNTVYLQMNSLKPEDTAVYYCAALGTGTGARSRYSVRFDYWGQGTQVTVSS”, the “polyreactivity (PSR sort gate)” value is reported as “high polyreactivity”. With “QVQRVESGGGLVQAGGSLRLSCAASGLIFGGYAMGWYRQAPGKERELVAAITSGGSTKYADSVKGRFTISRDNAKNTVYLQMNSLKPEDTAVYYCAASGWRNWWSARNYYWGQGTQVTVSS” the “polyreactivity (PSR sort gate)” value was “low polyreactivity”.
